Results as given in patent publication US20170165337A1 (IMMATICS BIOTECHNOLOGIES, published 2017).

Each binder was assayed against T1, HLA-A*02:01 (human) (assay: UV peptide-exchange ELISA).
T1 construct: MHC class I monomer of the UV-ligand exchange assay; also called peptide-receptive MHC molecules; MHC class I
Text: Candidate peptides for T cell based therapies according to the present invention were further tested for their MHC binding capacity (affinity). The individual peptide-MHC complexes were produced by UV-ligand exchange, where a UV-sensitive peptide is cleaved upon UV-irradiation, and exchanged with the peptide of interest as analyzed. Only peptide candidates that can effectively bind and stabilize the peptide-receptive MHC molecules prevent dissociation of the MHC complexes. To determine the yield of the exchange reaction, an ELISA was performed based on the detection of the light chain (β2m) of stabilized MHC complexes. The assay was performed as generally described in Rodenko et al. (Rodenko et al., 2006).
96 well MAXISorp plates (NUNC) were coated over night with 2 ug/ml streptavidin in PBS at room temperature, washed 4× and blocked forl h at 37° C. in 2% BSA containing blocking buffer. Refolded HLA-A*02:01/MLA-001 monomers served as standards, covering the range of 15-500 ng/ml. Peptide-MHC monomers of the UV-exchange reaction were diluted 100 fold in blocking buffer. Samples were incubated for 1 h at 37° C., washed four times, incubated with 2 ug/ml HRP conjugated anti-β2m for 1 h at 37° C., washed again and detected with TMB solution that is stopped with […]. Absorption was measured at 450 nm. Candidate peptides that show a high exchange yield (preferably higher than 50%, most preferred higher than 75%) are generally preferred for a generation and production of antibodies or fragments thereof, and/or T cell receptors or fragments thereof, as they show sufficient avidity to the MHC molecules and prevent dissociation of the MHC complexes.
In the case of ALPGGAAVAAV, the peptide exchange yield is reported as ≥ 75%.
SVHKGFAFV was tested, and the peptide exchange yield was 50 to 75%.
With TLDDDLDTV the peptide exchange yield was 20 to 50%.
Work on TLDPNQVSL yielded a peptide exchange yield of 20 to 50%.
TLDTSKLYV gave a peptide exchange yield of 50 to 75%.
For YLLDQSFVM, the peptide exchange yield was ≥ 75%.
With TLLLGLTEV the peptide exchange yield was 50 to 75%.
Work on TLTFRVETV yielded a peptide exchange yield of 50 to 75%.
In the case of TLVPPAALISI, the peptide exchange yield is reported as 50 to 75%.
TLYDMLASI gave a peptide exchange yield of 50 to 75%.
Binder TVIENIHTI has a peptide exchange yield of 20 to 50%.
Binder ALTKTNLQL has a peptide exchange yield of 50 to 75%.
In the case of VLAELPIIVV, the peptide exchange yield is reported as 50 to 75%.
With FTVPRVVAV the peptide exchange yield was 50 to 75%.
For VLAEQNIIPSA, the peptide exchange yield was 50 to 75%.
With VLDDRELLL the peptide exchange yield was 50 to 75%.
In the case of VLFFNVQEV, the peptide exchange yield is reported as 50 to 75%.
With VLLGLEMTL the peptide exchange yield was 50 to 75%.
Binder LLKDGPEIGL has a peptide exchange yield of 20 to 50%.
VLLSIPFVSV was tested, and the peptide exchange yield was 50 to 75%.
With VLLSVPGPPV the peptide exchange yield was 50 to 75%.
VLMPTVYQQGV showed a peptide exchange yield of 50 to 75%.
For LLGEFSIKM, the peptide exchange yield was 50 to 75%.
Work on VLSHNLYTV yielded a peptide exchange yield of 50 to 75%.
VMDDQRDLI showed a peptide exchange yield of 20 to 50%.
With VMDPTKILI the peptide exchange yield was ≥ 75%.
With VMDTHLVNI the peptide exchange yield was ≥ 75%.
VMGDIPAAV gave a peptide exchange yield of 20 to 50%.
In the case of VMLEMTPEL, the peptide exchange yield is reported as 50 to 75%.
Binder VVMGTVPRL has a peptide exchange yield of 50 to 75%.
With YIFDGSDGGV the peptide exchange yield was 50 to 75%.
YIQEYLTLL showed a peptide exchange yield of 50 to 75%.
Work on YLDLSNNRL yielded a peptide exchange yield of 50 to 75%.
In the case of QVMEKLAAV, the peptide exchange yield is reported as 50 to 75%.
For YLDNVLAEL, the peptide exchange yield was ≥ 75%.
For YLGGFALSV, the peptide exchange yield was ≥ 75%.
For YLLLQTYVL, the peptide exchange yield was 10 to 20%.
With YLQEVPILTL the peptide exchange yield was ≥ 75%.
YLTFLPAEV was tested, and the peptide exchange yield was 50 to 75%.
With YLVELSSLL the peptide exchange yield was ≥ 75%.
YMFEEVPIVI was tested, and the peptide exchange yield was ≥ 75%.
With YQLELHGIEL the peptide exchange yield was ≥ 75%.
For YVDDVFLRV, the peptide exchange yield was ≥ 75%.
Binder ALLSSQLAL has a peptide exchange yield of 50 to 75%.
ALHRPDVYL was tested, and the peptide exchange yield was 50 to 75%.
ALVDPGPDFVV showed a peptide exchange yield of 50 to 75%.
GLLQINDKIAL gave a peptide exchange yield of 50 to 75%.
GLSQANFTL showed a peptide exchange yield of 50 to 75%.
In the case of HMQDVRVLL, the peptide exchange yield is reported as 50 to 75%.
IIADLDTTIMFA was tested, and the peptide exchange yield was 50 to 75%.
ILLKTEGINL showed a peptide exchange yield of 50 to 75%.
ILQAELPSL showed a peptide exchange yield of 50 to 75%.
KLLVQDFFL gave a peptide exchange yield of 50 to 75%.
LIDVKPLGV showed a peptide exchange yield of 50 to 75%.
RLQELTEKL gave a peptide exchange yield of 50 to 75%.
Binder VMQDIVYKL has a peptide exchange yield of 50 to 75%.
With ALWAGLLTL the peptide exchange yield was 50 to 75%.
WLAGDVPAA gave a peptide exchange yield of 50 to 75%.
ALDEPPYLTV gave a peptide exchange yield of 50 to 75%.
For ALGEEWKGYVV, the peptide exchange yield was 20 to 50%.
Binder ALLNLLESA has a peptide exchange yield of 50 to 75%.
ALPEILFAKV showed a peptide exchange yield of 50 to 75%.
Work on ALVSTIIMV yielded a peptide exchange yield of 10 to 20%.
With ALWELSLKI the peptide exchange yield was 50 to 75%.
ALWVSQPPEI gave a peptide exchange yield of 50 to 75%.
With AMEALVVEV the peptide exchange yield was 50 to 75%.
In the case of ILQERELLPV, the peptide exchange yield is reported as 50 to 75%.
